{
  "source": "paper PMC12855180",
  "about": "(Nature Communications, 2025)",
  "molecules": {"B1": {"name": "full-length FliD, as in the fusion constructs (natural protein)", "chain": "MASISSLGVGSNLPLDQLLTDLTKNEKGRLTPITKQQSANSAKLTAYGTLKSALEKFQTANTALNKADLFKSTVASSTTEDLKVSTTAGAAAGTYKINVTQLAAAQSLATKTTFATTKEQLGDTSVTSRTIKIEQPGRKEPLEIKLDKGDTSMEAIRDAINDADSGIAASIVKVKENEFQLVLTANSGTDNTMKITVEGDTKLNDLLAYDSTTNTGNMQELVKAENAKLNVNGIDIERQSNTVTDAPQGITLTLTKKVTDATVTVTKDDTKAKEAIKSWVDAYNSLVDTFSSLTKYTAVEPGEEASDKNGALLGDSVVRTIQTGIRAQFANSGSNSAFKTMAEIGITQDGTSGKLKIDDDKLTKVLKDNTAAARELLVGDGKETGITTKIATEVKSYLADDGIIDNAQDNVNATLKSLTKQYLSVSNSIDETVARYKAQFTQLDTMMSKLNNTSSYLTQQFTAMNKS"}},
  "key": {"[1]": {"biological_target": "FliD D1 domain (FliD^d1) (Salmonella enterica serovar Typhimurium) (UniProt P16328)", "test": "NMR titration"}, "[2]": {"biological_target": "FliD D1 domain (FliD^d1) (Salmonella enterica serovar Typhimurium) (UniProt P16328)", "test": "NMR titration", "remark": "listed apart in the source"}, "cryo-EM structure [3]": {"biological_target": "the molecule itself", "test": "cryo-EM structure"}, "cryo-EM structure [4]": {"biological_target": "the molecule itself", "test": "cryo-EM structure", "remark": "listed apart in the source"}, "[5]": {"biological_target": "B1", "test": "cryo-EM structure"}, "cryo-EM structure [6]": {"biological_target": "the molecule itself", "test": "cryo-EM structure", "remark": "listed apart in the source"}, "cryo-EM structure [7]": {"biological_target": "the molecule itself", "test": "cryo-EM structure", "remark": "listed apart in the source"}, "cross-linking": {"biological_target": "the molecule itself", "test": "cross-linking"}},
  "note": "Read-outs that look alike come from different tables or passages of the source.",
  "data": [
    {"molecule": "FliC, flagellin (unlabeled, for NMR titration) (from UniProt P06179 1-495) (natural protein)", "values": [
      {"measurement": "Kd", "setting": "[1]", "value": 1650, "unit": "µM"},
      {"measurement": "stoichiometry N", "setting": "[1]", "value": 1}
    ]},
    {"molecule": "FlgL, hook-filament junction protein (unlabeled, for NMR titration) (natural protein) MRISTQMMYEQNMSGITNSQAEWMKLGEQMSTGKRVTNPSDDPIAASQAVVLSQAQAQNSQYALARTFATQKVSLEESVLSQVTTAIQTAQEKIVYAGNGTLSDDDRASLATDLQGIRDQLMNLANSTDGNGRYIFAGYKTEAAPFDQATGGYHGGEKSVTQQVDSARTMVIGHTGAQIFNSITSNAVPEPDGSDSEKNLFVMLDTAIAALKTPVEGNNVEKEKAAAAIDKTNRGLKNSLNNVLTVRAELGTQLSELSTLDSLGSDRALGQKLQMSNLVDVDWNSVISSYVMQQAALQASYKTFTDMQGMSLFQLNR", "values": [
      {"measurement": "Kd", "setting": "[2]", "value": 100, "unit": "µM"}
    ]},
    {"molecule": "native FlgL of the hook-filament junction tip (natural protein) MRISTQMMYEQNMSGITNSQAEWMKLGEQMSTGKRVTNPSDDPIAASQAVVLSQAQAQNSQYALARTFATQKVSLEESVLSQVTTAIQTAQEKIVYAGNGTLSDDDRASLATDLQGIRDQLMNLANSTDGNGRYIFAGYKTEAAPFDQATGGYHGGEKSVTQQVDSARTMVIGHTGAQIFNSITSNAVPEPDGSDSEKNLFVMLDTAIAALKTPVEGNNVEKEKAAAAIDKTNRGLKNSLNNVLTVRAELGTQLSELSTLDSLGSDRALGQKLQMSNLVDVDWNSVISSYVMQQAALQASYKTFTDMQGMSLFQLNR", "values": [
      {"measurement": "stoichiometry N", "setting": "cryo-EM structure [3]", "value": 11}
    ]},
    {"molecule": "FliD d0 domain truncation construct (FliD^d1d2d3, residues from 44 to 411) (domain or fragment) LTAYGTLKSALEKFQTANTALNKADLFKSTVASSTTEDLKVSTTAGAAAGTYKINVTQLAAAQSLATKTTFATTKEQLGDTSVTSRTIKIEQPGRKEPLEIKLDKGDTSMEAIRDAINDADSGIAASIVKVKENEFQLVLTANSGTDNTMKITVEGDTKLNDLLAYDSTTNTGNMQELVKAENAKLNVNGIDIERQSNTVTDAPQGITLTLTKKVTDATVTVTKDDTKAKEAIKSWVDAYNSLVDTFSSLTKYTAVEPGEEASDKNGALLGDSVVRTIQTGIRAQFANSGSNSAFKTMAEIGITQDGTSGKLKIDDDKLTKVLKDNTAAARELLVGDGKETGITTKIATEVKSYLADDGIIDNAQDNV", "values": [
      {"measurement": "stoichiometry N", "setting": "cryo-EM structure [4]", "value": 5}
    ]},
    {"molecule": "FliC D1D2D3 (residues 45-455), as in the FliD-FliC fusion (domain or fragment) AAGQAIANRFTANIKGLTQASRNANDGISIAQTTEGALNEINNNLQRVRELAVQSANSTNSQSDLDSIQAEITQRLNEIDRVSGQTQFNGVKVLAQDNTLTIQVGANDGETIDIDLKQINSQTLGLDTLNVQQKYKVSDTAATVTGYADTTIALDNSTFKASATGLGGTDQKIDGDLKFDDTTGKYYAKVTVTGGTGKDGYYEVSVDKTNGEVTLAGGATSPLTGGLPATATEDVKNVQVANADLTEAKAALTAAGVTGTASVVKMSYTDNNGKTIDGGLAVKVGDDYYSATQNKDGSISINTTKYTADDGTSKTALNKLGGADGKTEVVSIGGKTYAASKAEGHNFKAQPDLAEAAATTTENPLQKIDAALAQVDTLRSDLGAVQNRFNSAITNLGNTVNNLTSARSRIE", "values": [
      {"measurement": "stoichiometry N", "setting": "[5]", "value": 1}
    ]},
    {"molecule": "B1", "values": [
      {"measurement": "stoichiometry N", "setting": "cryo-EM structure [6]", "value": 5},
      {"measurement": "stoichiometry N", "setting": "cryo-EM structure [7]", "value": 10}
    ]},
    {"molecule": "native FliD of the flagellar tip (natural protein) MASISSLGVGSNLPLDQLLTDLTKNEKGRLTPITKQQSANSAKLTAYGTLKSALEKFQTANTALNKADLFKSTVASSTTEDLKVSTTAGAAAGTYKINVTQLAAAQSLATKTTFATTKEQLGDTSVTSRTIKIEQPGRKEPLEIKLDKGDTSMEAIRDAINDADSGIAASIVKVKENEFQLVLTANSGTDNTMKITVEGDTKLNDLLAYDSTTNTGNMQELVKAENAKLNVNGIDIERQSNTVTDAPQGITLTLTKKVTDATVTVTKDDTKAKEAIKSWVDAYNSLVDTFSSLTKYTAVEPGEEASDKNGALLGDSVVRTIQTGIRAQFANSGSNSAFKTMAEIGITQDGTSGKLKIDDDKLTKVLKDNTAAARELLVGDGKETGITTKIATEVKSYLADDGIIDNAQDNVNATLKSLTKQYLSVSNSIDETVARYKAQFTQLDTMMSKLNNTSSYLTQQFTAMNKS", "values": [
      {"measurement": "stoichiometry N", "setting": "cryo-EM structure [3]", "value": 5}
    ]},
    {"molecule": "FliD^2C (A91C/A168C) (natural protein) MASISSLGVGSNLPLDQLLTDLTKNEKGRLTPITKQQSANSAKLTAYGTLKSALEKFQTANTALNKADLFKSTVASSTTEDLKVSTTAGACAGTYKINVTQLAAAQSLATKTTFATTKEQLGDTSVTSRTIKIEQPGRKEPLEIKLDKGDTSMEAIRDAINDADSGICASIVKVKENEFQLVLTANSGTDNTMKITVEGDTKLNDLLAYDSTTNTGNMQELVKAENAKLNVNGIDIERQSNTVTDAPQGITLTLTKKVTDATVTVTKDDTKAKEAIKSWVDAYNSLVDTFSSLTKYTAVEPGEEASDKNGALLGDSVVRTIQTGIRAQFANSGSNSAFKTMAEIGITQDGTSGKLKIDDDKLTKVLKDNTAAARELLVGDGKETGITTKIATEVKSYLADDGIIDNAQDNVNATLKSLTKQYLSVSNSIDETVARYKAQFTQLDTMMSKLNNTSSYLTQQFTAMNKS", "values": [
      {"measurement": "stoichiometry N", "setting": "cross-linking", "value": 5}
    ]}
  ]
}
